Laboratory results taken from the supplement of paper PMC7125110.
± gives the standard error. Fewer inactive variants are shown than the library holds.

B1: glmS ribozyme (parent)
chain: AUAAAAGCGCCAGAACUACAGAAAUGUAGUUGACGAGGAGGAGGUUUAUCGAAUUUUCGGCGGAUGCCUCCAAA

Experiments:
Conditions in all cases: with glucosamine-6-phosphate
glucosamine-6-phosphate [1] = variants of: B1; test: self-cleavage kobs at 160 uM GlcN6P; higher = faster cleavage; RNA array
Outline: (§1)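 Over ~14 h at 37 °C, tiles were imaged as glucosamine-6-phosphate (40 μM to 10 mM) in HEPES/KCl/Mg(OAc)2 buffer flowed across sequenced MiSeq chips. The chips carried barcoded ribozyme variants transcribed in situ by E. coli RNA polymerase and tracked with a hybridised Cy3 probe. After normalisation to baseline and to non-cleaving reference variants, one- or two-exponential decay fits of per-tile medians gave kobs. kcat and KM followed from weighted Michaelis–Menten fits across concentrations.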

glucosamine-6-phosphate [2] = variants of: B1; test: self-cleavage kobs at 640 uM GlcN6P; higher = faster cleavage; RNA array
Outline: as §1

glucosamine-6-phosphate [3] = variants of: B1; test: self-cleavage kobs at 2500 uM GlcN6P; higher = faster cleavage; RNA array
Outline: as §1

glucosamine-6-phosphate [4] = variants of: B1; test: self-cleavage kobs at 10000 uM GlcN6P; higher = faster cleavage; RNA array
Outline: as §1

glucosamine-6-phosphate [5] = variants of: B1; test: self-cleavage kobs at 40 uM GlcN6P; higher = faster cleavage; RNA array
Outline: as §1

Variant	self-cleavage kobs at 160 uM GlcN6P (glucosamine-6-phosphate [1]) [s⁻¹]	self-cleavage kobs at 640 uM GlcN6P (glucosamine-6-phosphate [2]) [s⁻¹]	self-cleavage kobs at 2500 uM GlcN6P (glucosamine-6-phosphate [3]) [s⁻¹]	self-cleavage kobs at 10000 uM GlcN6P (glucosamine-6-phosphate [4]) [s⁻¹]	self-cleavage kobs at 40 uM GlcN6P (glucosamine-6-phosphate [5]) [s⁻¹]
A6U A14C G51A	< 1e-05	< 1e-05			
A6C U49G G62A A64G	< 1e-05	< 1e-05	< 1e-05		
G7C G41C	< 1e-05	< 1e-05		< 1e-05	
G62C G63A	< 1e-05	< 1e-05	< 1e-05		< 1e-05
A6G A36G U56A	< 1e-05	< 1e-05	< 1e-05		
C58U G60A		< 1e-05	< 1e-05	< 1e-05	< 1e-05
G7A U30C A64C	< 1e-05	< 1e-05	< 1e-05		
G62U G63A	< 1e-05	< 1e-05	< 1e-05	< 1e-05	< 1e-05
G62C C67G		< 1e-05	< 1e-05	< 1e-05	< 1e-05
A6G C10U U57C	< 1e-05				
G59C	< 1e-05	< 1e-05		< 1e-05	< 1e-05
G7A U54G	< 1e-05			4.41e-05 ± 1.5e-05	
G7A U31C	< 1e-05	< 1e-05			
C58A A64U			< 1e-05	< 1e-05	< 1e-05
U55G U57G		5.98e-05 ± 2.6e-05		5.12e-05 ± 1.3e-05	< 1e-05
A6G C8G U31A G32U	< 1e-05				
C58U G62A	< 1e-05	< 1e-05	< 1e-05	< 1e-05	< 1e-05
C68A	5.51e-05 ± 1.8e-05	0.000539 ± 0.00015	0.000102 ± 4.6e-05	0.000447 ± 7.5e-05	< 1e-05
C68G		0.000523 ± 0.00014	9.11e-05 ± 1.8e-06	0.000473 ± 9.9e-05	1.18e-05 ± 2.8e-06
A6U A42U C61G	< 1e-05				
U57C G62U C70A					< 1e-05
A6G G32U G40A C61G	< 1e-05	< 1e-05	< 1e-05		
G7A U30G	< 1e-05		< 1e-05		
G7U C8U A12G G51C C61U	< 1e-05	< 1e-05			

Variant	self-cleavage kobs at 160 uM GlcN6P (glucosamine-6-phosphate [1]) [s⁻¹]	self-cleavage kobs at 640 uM GlcN6P (glucosamine-6-phosphate [2]) [s⁻¹]	self-cleavage kobs at 2500 uM GlcN6P (glucosamine-6-phosphate [3]) [s⁻¹]	self-cleavage kobs at 10000 uM GlcN6P (glucosamine-6-phosphate [4]) [s⁻¹]	self-cleavage kobs at 40 uM GlcN6P (glucosamine-6-phosphate [5]) [s⁻¹]
G60C U69C				< 1e-05	< 1e-05
G60C U69G	< 1e-05			< 1e-05	< 1e-05
G7A U65C	< 1e-05	< 1e-05	< 1e-05	< 1e-05	
A6C A12G C68G C70G	< 1e-05	< 1e-05	< 1e-05		
G7C C10G C70U	< 1e-05			< 1e-05	
G60U A64G	< 1e-05	< 1e-05	< 1e-05	< 1e-05	< 1e-05
G7C G13U A42G	< 1e-05			< 1e-05	
A6G A36G G44U C61U	< 1e-05	< 1e-05	< 1e-05		
G7U A52C	< 1e-05	< 1e-05		< 1e-05	
A6G G7C C10U G35U G40U G60A C70G	< 1e-05	< 1e-05	< 1e-05		
A6G C16G G38A	< 1e-05	< 1e-05			
A6C A12C A36C G43A G51U C70G	< 1e-05	< 1e-05			
A6U C11A A12U C34G C50U U55G	< 1e-05	< 1e-05	< 1e-05		
A6C C8G G35C C58U C67G	< 1e-05		< 1e-05		
G59A A64U			< 1e-05	< 1e-05	< 1e-05
G7C G9U A36G C68A	< 1e-05	< 1e-05	< 1e-05		
G7U C67A	< 1e-05	< 1e-05			
G7C C50U G51U C70A	< 1e-05		< 1e-05		
G60A A64U		< 1e-05	< 1e-05		< 1e-05
A6U C10G C68U	< 1e-05				
G7U G9A C16U G29A A53U G59A G66A U69G	< 1e-05	< 1e-05			
G7C C8G A52G	< 1e-05	< 1e-05	< 1e-05		
A6G G40C C50G	< 1e-05		< 1e-05		
